These are literature values, as cited in PMC11817637.

One data set deals with RyR1 (UniProt P21817).
The target in data set [1] is RyR1 (Oryctolagus cuniculus) (UniProt P11716).

Chain of UniProt P21817 (P21817 whole entry): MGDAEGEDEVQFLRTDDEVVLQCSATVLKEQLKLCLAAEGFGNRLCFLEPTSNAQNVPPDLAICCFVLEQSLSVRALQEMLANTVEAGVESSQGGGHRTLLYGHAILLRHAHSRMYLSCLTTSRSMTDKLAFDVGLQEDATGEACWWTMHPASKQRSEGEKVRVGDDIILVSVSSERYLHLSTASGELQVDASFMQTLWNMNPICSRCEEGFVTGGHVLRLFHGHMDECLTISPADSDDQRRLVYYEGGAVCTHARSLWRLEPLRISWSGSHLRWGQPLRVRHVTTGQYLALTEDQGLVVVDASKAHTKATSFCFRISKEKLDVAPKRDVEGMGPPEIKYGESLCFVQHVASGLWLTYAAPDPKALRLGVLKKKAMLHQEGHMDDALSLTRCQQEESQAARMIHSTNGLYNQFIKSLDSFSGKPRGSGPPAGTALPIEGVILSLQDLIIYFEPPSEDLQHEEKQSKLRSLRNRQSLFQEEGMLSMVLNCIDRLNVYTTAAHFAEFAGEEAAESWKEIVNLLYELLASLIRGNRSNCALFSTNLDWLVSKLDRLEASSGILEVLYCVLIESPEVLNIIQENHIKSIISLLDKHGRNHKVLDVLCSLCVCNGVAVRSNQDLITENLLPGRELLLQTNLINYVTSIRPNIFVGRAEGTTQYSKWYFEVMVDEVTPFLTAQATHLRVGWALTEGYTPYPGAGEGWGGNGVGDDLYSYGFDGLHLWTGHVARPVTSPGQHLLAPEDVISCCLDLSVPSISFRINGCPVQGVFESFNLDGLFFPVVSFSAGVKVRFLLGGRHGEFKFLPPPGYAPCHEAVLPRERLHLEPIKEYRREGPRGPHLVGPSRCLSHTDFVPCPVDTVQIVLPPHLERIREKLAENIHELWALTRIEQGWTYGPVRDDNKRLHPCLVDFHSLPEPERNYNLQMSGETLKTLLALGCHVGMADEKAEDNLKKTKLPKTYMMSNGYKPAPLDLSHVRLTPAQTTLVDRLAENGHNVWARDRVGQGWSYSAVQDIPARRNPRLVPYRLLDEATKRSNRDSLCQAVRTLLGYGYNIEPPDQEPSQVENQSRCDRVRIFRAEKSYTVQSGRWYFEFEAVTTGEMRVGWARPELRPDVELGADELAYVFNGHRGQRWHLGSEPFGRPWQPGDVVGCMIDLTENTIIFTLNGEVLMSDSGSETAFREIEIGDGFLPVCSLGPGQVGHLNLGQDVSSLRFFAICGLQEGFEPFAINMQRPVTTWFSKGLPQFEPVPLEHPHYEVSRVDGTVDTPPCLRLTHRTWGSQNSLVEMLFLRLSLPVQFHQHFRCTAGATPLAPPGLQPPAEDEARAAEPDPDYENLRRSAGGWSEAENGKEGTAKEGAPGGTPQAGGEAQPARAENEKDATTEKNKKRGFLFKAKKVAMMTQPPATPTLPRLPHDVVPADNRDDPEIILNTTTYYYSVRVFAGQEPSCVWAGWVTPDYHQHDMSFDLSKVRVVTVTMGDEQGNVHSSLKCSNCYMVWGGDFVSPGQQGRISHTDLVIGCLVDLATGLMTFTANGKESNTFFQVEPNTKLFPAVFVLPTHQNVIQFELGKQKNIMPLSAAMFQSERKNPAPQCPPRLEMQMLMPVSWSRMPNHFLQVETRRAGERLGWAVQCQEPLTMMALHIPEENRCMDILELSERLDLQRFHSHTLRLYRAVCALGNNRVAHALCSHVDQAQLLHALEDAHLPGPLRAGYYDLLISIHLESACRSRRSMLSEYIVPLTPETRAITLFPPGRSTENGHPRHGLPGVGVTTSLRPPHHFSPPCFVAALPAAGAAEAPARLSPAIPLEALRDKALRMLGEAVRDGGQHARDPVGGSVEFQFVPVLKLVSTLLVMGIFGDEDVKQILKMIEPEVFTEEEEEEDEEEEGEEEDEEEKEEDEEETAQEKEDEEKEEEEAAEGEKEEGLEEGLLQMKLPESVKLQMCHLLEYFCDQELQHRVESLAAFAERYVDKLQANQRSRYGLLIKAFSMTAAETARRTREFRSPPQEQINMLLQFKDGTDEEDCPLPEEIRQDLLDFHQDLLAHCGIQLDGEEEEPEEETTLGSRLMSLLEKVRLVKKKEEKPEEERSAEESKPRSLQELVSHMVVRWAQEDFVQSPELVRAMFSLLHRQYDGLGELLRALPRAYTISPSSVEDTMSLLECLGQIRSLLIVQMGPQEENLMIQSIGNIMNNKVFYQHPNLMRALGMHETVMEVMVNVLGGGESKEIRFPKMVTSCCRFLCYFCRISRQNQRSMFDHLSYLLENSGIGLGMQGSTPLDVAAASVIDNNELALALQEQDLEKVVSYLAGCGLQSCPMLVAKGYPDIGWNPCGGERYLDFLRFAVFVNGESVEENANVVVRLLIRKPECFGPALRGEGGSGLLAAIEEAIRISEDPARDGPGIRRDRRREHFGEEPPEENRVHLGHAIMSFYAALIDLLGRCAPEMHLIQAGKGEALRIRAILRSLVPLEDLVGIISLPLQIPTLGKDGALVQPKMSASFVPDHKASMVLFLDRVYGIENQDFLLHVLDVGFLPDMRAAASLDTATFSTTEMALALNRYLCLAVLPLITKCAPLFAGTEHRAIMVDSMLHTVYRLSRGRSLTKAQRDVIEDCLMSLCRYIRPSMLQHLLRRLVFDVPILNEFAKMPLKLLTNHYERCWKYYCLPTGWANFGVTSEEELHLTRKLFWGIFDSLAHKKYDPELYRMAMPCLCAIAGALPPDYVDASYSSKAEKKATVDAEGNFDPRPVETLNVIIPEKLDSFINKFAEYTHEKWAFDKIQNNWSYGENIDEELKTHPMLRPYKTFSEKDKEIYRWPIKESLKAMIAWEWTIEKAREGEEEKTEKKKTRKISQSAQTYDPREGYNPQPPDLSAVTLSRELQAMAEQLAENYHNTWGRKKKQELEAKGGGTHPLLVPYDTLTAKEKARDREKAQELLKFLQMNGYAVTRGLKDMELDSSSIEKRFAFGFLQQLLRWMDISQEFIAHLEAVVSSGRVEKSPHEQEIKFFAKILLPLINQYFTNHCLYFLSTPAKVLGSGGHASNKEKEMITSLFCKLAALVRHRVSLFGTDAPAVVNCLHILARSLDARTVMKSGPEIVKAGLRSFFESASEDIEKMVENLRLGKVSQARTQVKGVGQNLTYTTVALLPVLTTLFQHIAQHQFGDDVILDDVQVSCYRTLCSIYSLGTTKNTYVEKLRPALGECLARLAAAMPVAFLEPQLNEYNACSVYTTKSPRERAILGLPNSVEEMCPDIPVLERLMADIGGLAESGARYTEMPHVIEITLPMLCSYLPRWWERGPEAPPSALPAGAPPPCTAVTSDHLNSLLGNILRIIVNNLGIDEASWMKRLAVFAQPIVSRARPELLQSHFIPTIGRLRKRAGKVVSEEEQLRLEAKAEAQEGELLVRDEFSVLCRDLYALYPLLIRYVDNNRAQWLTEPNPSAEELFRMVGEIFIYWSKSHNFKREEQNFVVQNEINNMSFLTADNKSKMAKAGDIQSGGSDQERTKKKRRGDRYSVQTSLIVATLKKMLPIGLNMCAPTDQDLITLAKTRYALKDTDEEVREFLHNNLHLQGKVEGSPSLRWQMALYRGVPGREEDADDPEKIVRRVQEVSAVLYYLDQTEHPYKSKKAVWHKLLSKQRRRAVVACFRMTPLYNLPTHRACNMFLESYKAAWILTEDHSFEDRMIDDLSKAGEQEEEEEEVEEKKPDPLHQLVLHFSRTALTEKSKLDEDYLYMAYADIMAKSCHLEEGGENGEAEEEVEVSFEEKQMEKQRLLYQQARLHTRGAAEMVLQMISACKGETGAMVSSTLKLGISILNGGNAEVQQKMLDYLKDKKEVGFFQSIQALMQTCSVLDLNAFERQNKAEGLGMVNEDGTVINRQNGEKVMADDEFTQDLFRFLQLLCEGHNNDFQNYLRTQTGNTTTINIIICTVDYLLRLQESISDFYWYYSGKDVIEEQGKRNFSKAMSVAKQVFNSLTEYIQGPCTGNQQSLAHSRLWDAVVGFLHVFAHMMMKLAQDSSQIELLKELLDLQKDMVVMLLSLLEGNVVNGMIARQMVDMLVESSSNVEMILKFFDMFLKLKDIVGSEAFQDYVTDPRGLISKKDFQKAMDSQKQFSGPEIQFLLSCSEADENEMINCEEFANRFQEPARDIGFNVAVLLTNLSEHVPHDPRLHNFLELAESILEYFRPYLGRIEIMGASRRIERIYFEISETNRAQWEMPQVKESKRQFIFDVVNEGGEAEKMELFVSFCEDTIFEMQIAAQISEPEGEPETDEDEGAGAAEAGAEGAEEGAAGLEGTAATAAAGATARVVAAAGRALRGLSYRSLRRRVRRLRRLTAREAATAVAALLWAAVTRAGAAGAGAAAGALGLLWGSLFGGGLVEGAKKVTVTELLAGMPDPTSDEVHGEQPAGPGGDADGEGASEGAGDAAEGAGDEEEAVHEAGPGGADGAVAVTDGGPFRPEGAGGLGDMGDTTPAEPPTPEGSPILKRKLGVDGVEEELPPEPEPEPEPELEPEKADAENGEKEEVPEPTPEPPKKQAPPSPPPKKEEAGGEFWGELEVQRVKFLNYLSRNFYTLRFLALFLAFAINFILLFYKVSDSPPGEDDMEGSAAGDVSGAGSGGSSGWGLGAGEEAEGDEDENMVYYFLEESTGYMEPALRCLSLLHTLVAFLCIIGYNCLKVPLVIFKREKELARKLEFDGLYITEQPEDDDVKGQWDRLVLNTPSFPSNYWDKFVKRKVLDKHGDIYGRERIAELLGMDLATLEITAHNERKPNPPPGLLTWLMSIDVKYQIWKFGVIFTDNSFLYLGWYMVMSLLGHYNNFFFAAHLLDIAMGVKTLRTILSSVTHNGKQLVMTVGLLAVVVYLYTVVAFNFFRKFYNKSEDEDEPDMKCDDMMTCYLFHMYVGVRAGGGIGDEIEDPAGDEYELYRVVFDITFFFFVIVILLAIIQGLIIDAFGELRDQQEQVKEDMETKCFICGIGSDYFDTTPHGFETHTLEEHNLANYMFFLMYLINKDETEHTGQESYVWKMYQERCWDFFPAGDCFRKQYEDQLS

In general, Kd refers to the constant that tells how readily two partners part at equilibrium. As for FKBP12 (from UniProt P62942), the dissociation constant Kd with RyR1 is 100 nM.

With FKBP12 (from UniProt P62943), in data set [1], the Kd is 2.6 nM.
